Data: IntAct's records for PubMed 32296183

B1: Very-long-chain enoyl-CoA reductase (Homo sapiens), Q9NZ01 (parent)
chain: MKHYEVEILDAKTREKLCFLDKVEPHATIAEIKNLFTKTHPQWYPARQSLRLDPKGKSLKDEDVLQKLPVGTTATLYFRDLGAQISWVTVFLTEYAGPLFIYLLFYFRVPFIYGHKYDFTSSRHTVVHLACICHSFHYIKRLLETLFVHRFSHGTMPLRNIFKNCTYYWGFAAWMAYYINHPLYTPPTYGAQQVKLALAIFVICQLGNFSIHMALRDLRPAGSKTRKIPYPTKNPFTWLFLLVSCPNYTYEVGSWIGFAIMTQCLPVALFSLVGFTQMTIWAKGKHRSYLKEFRDYPPLRMPIIPFLL
B2: Golgi SNAP receptor complex member 2 (Homo sapiens), O14653 (parent)
chain: MDPLFQQTHKQVHEIQSCMGRLETADKQSVHIVENEIQASIDQIFSRLERLEILSSKEPPNKRQNARLRVDQLKYDVQHLQTALRNFQHRRHAREQQERQREELLSRTFTTNDSDTTIPMDESLQFNSSLQKVHNGMDDLILDGHNILDGLRTQRLTLKGTQKKILDIANMLGLSNTVMRLIEKRAFQDKYFMIGGMLLTCVVMFLVVQYLT
partner: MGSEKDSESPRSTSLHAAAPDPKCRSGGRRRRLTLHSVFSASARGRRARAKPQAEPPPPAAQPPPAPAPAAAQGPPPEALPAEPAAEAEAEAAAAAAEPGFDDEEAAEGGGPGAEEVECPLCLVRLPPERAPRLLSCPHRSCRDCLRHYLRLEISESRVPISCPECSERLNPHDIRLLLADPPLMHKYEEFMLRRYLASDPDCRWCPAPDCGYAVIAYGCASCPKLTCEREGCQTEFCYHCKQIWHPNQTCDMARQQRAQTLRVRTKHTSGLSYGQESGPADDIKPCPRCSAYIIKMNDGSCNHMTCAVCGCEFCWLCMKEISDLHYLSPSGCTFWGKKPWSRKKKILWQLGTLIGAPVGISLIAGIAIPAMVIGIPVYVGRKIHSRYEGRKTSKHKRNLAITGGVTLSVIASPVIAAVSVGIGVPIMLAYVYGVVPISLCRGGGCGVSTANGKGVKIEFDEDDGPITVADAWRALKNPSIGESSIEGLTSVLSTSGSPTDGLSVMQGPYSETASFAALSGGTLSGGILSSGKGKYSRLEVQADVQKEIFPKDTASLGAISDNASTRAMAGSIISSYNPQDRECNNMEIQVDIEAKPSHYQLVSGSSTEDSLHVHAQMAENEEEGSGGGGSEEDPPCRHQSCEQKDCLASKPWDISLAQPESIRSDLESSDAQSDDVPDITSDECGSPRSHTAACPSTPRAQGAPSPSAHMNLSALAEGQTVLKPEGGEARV
B3: Ceroid-lipofuscinosis neuronal protein 6 (Homo sapiens), Q9NWW5 (parent)
chain: MEATRRRQHLGATGGPGAQLGASFLQARHGSVSADEAARTAPFHLDLWFYFTLQNWVLDFGRPIAMLVFPLEWFPLNKPSVGDYFHMAYNVITPFLLLKLIERSPRTLPRSITYVSIIIFIMGASIHLVGDSVNHRLLFSGYQHHLSVRENPIIKNLKPETLIDSFELLYYYDEYLGHCMWYIPFFLILFMYFSGCFTASKAESLIPGPALLLVAPSGLYYWYLVTEGQIFILFIFTFFAMLALVLHQKRKRLFLDSNGLFLFSSFALTLLLVALWVAWLWNDPVLRKKYPGVIYVPEPWAFYTLHVSSRH
partner: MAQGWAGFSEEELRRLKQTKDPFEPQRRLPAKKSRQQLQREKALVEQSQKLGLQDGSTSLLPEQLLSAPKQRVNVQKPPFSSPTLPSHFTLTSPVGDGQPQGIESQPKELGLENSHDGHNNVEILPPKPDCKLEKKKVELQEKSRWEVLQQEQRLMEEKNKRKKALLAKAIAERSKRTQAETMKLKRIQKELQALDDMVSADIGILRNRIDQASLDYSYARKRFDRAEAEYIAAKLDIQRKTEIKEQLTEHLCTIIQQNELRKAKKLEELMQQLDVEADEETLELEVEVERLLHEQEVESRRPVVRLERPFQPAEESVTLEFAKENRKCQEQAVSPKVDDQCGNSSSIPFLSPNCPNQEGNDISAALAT
B4: Golgi SNAP receptor complex member 2 (Homo sapiens), O14653 (parent)
chain: B2 chain
partner: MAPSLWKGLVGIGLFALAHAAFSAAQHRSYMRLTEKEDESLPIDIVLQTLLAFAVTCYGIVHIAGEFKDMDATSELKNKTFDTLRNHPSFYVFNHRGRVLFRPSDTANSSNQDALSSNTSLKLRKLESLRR
B5: Very-long-chain enoyl-CoA reductase (Homo sapiens), Q9NZ01 (parent)
chain: B1 chain
partner: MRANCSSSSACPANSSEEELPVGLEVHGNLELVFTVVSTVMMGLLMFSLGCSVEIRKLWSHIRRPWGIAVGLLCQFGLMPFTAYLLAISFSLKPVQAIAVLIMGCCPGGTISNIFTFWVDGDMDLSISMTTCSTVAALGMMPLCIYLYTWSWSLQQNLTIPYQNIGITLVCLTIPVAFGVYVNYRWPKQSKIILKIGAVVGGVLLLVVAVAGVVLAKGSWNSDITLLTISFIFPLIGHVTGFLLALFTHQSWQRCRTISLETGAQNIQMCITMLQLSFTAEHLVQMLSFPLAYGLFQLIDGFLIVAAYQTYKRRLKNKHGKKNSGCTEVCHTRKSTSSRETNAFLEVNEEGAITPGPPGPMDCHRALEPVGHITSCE

Variants of: B1
Conditions: with ergi3_human ERGIC3, Q9Y282
Sequence of ergi3_human ERGIC3, Q9Y282 (Q9Y282 whole entry): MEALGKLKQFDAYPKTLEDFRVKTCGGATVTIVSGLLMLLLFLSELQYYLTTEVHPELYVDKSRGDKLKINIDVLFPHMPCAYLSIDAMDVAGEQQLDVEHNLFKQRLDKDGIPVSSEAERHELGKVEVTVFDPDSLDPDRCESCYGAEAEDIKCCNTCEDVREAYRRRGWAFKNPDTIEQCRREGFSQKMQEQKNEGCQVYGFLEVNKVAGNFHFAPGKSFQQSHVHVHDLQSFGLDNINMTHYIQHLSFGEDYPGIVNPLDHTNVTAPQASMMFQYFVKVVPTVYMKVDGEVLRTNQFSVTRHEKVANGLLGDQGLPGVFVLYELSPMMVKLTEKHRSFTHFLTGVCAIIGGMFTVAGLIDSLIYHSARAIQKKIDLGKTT

| Variant | effect of a mutation on the interaction |
| --- | --- |
| P182L | disrupting interaction strength |

Variants of: B1
Conditions: with cd79a_human CD79A

| Variant | effect of a mutation on the interaction |
| --- | --- |
| P182L | disrupting interaction strength |

Variants of: B1
Conditions: with MUC1, P15941-11
Sequence of MUC1, P15941-11 (P15941 other isoform, or with tags, fused parts or gaps): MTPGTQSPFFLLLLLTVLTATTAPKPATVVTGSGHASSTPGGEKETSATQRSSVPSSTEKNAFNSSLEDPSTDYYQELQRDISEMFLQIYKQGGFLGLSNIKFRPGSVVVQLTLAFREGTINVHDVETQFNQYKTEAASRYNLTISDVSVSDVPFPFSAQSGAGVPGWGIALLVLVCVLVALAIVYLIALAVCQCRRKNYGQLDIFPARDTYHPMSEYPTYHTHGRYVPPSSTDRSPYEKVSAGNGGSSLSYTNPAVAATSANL

| Variant | effect of a mutation on the interaction |
| --- | --- |
| P182L | disrupting interaction strength |

Variants of: B1
Conditions: with ar13b_human ARL13B

| Variant | effect of a mutation on the interaction |
| --- | --- |
| P182L | disrupting interaction strength |

Variants of: B1
Conditions: with SLC7A14, Q8TBB6
Sequence of SLC7A14, Q8TBB6 (Q8TBB6 whole entry): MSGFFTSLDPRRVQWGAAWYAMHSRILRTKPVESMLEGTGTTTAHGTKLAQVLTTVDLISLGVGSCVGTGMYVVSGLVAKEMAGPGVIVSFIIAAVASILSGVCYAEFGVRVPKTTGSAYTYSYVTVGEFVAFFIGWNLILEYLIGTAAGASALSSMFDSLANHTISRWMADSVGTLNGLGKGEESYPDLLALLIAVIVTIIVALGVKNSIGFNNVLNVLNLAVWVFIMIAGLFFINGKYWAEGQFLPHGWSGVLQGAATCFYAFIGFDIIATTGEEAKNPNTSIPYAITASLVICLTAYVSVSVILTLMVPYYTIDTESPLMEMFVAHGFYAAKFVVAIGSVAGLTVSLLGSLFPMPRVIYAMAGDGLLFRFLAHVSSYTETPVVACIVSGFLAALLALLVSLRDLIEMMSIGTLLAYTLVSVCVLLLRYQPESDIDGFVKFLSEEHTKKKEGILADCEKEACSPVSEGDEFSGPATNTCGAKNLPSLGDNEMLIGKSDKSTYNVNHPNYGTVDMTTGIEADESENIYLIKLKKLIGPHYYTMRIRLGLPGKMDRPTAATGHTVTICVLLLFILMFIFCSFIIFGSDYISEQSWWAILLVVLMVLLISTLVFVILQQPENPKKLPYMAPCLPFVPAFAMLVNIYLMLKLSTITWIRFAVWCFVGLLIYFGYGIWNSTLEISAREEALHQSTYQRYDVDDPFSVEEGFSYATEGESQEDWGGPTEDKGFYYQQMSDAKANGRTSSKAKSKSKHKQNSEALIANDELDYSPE

| Variant | effect of a mutation on the interaction |
| --- | --- |
| P182L | disrupting interaction strength |

Variants of: B1
Conditions: with sting_human STING1, Q86WV6
Sequence of sting_human STING1, Q86WV6 (Q86WV6 whole entry): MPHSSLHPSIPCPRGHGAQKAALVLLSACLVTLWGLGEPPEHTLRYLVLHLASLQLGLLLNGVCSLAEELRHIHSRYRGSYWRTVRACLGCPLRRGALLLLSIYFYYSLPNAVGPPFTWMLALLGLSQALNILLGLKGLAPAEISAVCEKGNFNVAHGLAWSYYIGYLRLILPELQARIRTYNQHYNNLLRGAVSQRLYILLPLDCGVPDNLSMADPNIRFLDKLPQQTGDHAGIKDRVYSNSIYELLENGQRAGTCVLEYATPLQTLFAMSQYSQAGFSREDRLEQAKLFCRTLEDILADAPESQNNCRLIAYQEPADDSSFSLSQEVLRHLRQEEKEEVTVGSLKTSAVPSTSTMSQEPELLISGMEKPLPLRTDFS

| Variant | effect of a mutation on the interaction |
| --- | --- |
| P182L | with no effect |

Variants of: B2
Conditions: with rn19b_human RNF19B

| Variant | effect of a mutation on the interaction |
| --- | --- |
| G144W | with no effect |

Variants of: B3
Conditions: with gorab_human GORAB

| Variant | effect of a mutation on the interaction |
| --- | --- |
| L47F | with no effect |
| G123D | with no effect |
| R6T | with no effect |

Variants of: B4
Conditions: with emc5_human MMGT1, Q8N4V1

| Variant | effect of a mutation on the interaction |
| --- | --- |
| G144W | with no effect |

Variants of: B5
Conditions: with soat_human SLC10A6, Q3KNW5

| Variant | effect of a mutation on the interaction |
| --- | --- |
| P182L | with no effect |
